Data: the supplement of paper PMC10567573

B1: SETD8 (parent)
chain: FVVEYHGDLIEITDAKKREALYAQ
B2: GLTSCR2 (parent)
chain: LARRRRRRQARREAEADKPRRLGR

Variants of: B1
Assay: protein stability index of a GFP-peptide fusion (GPS, HEK-293T) (PSI 1-6); higher = more stable
Settings: c terminus: a fixed tail appended
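Also: lentivirally expressed fusions sorted by FACS into six bins by GFP to DsRed ratio, PSI derived from sequencing read proportions per bin multiplied by bin number.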

Protein stability index of substitutions, site by site:
Q24: K 1.86; T 2.09; N 1.71; M 1.75; S 1.6; L 1.51; V 1.85; R 2.89; P 2.05; Y 1.32; W 1.63

Variants of: B2
Assay: as above
Settings: c terminus: a fixed tail appended

Protein stability index of substitutions, site by site:
R8: F 4.64; Q 4.23; N 4.48; V 4.18; H 4.75; C 3.8; K 4.3; Y 4.15; G 4.25; D 4.83; E 4.83; A 4.98; I 4.3; T 4.21; L 3.48; P 4.44; W 4.48; S 5.01; M 4.98
L1: Q 4.51; G 5.13; W 4.58; D 5.28; N 4.89; F 4.4; K 4.56; Y 4.28; S 5.66; E 5.22; R 5.14; H 5.28; A 5.29; P 5.18; T 5.33; M 4.75; C 5.39; V 4.98; I 4.9
R6: V 3.6; L 4.6; N 5.07; E 4.03; Y 4.13; F 3.93; A 5.21; I 3.98; H 4.28; C 4.5; D 4.96; K 4.79; G 4.55; T 4.69; P 4.57; Q 5.03; M 4.27; W 4.74; S 4.86
A16: L 3.29; M 4.97; F 4.4; Q 4.89; P 4.61; D 4.82; N 4.91; I 4.22; C 4.48; S 3.77; V 4.69; T 4.76; G 4.09; W 3.73; R 3.96; Y 4.61; K 4.32; E 4.8; H 5.25
A14: K 4.61; L 4.33; D 4.49; I 4.28; M 4.34; G 3.91; W 4.45; F 4.11; H 4.34; V 4.58; Y 4.6; Q 4.8; R 4.52; N 4.44; T 4.97; E 5.11; P 4.97; S 4.7
Q9: C 4.4; L 4.66; A 4.17; T 5.12; D 4.44; M 3.79; Y 4.33; F 4.27; W 3.71; E 4.38; R 4.95; H 4.73; I 4.75; N 4.47; V 4.22; P 4.85; G 4.46; K 4.33; S 4.57
R11: G 3.7; F 4.09; P 4.62; M 4.47; E 4.87; L 5.4; H 4.74; W 4.53; K 4.52; C 4.64; A 4.53; N 3.94; Y 4.95; V 4.91; Q 4.26; I 4.8; S 4.74; T 5.06
R4: L 4.59; P 4.92; Y 4.16; H 4.35; V 3.97; D 4.64; N 4.63; G 4.3; I 4.46; C 4.34; F 3.75; A 4.39; M 4.57; E 5.25; W 3.11; K 3.13; T 4.67; Q 4.18; S 4.17
D17: R 4.82; F 4.73; W 4.33; C 4.07; A 4.3; N 4.32; M 4.49; P 4.33; E 5.31; H 4.81; Y 4.88; I 3.98; L 4.52; T 4.66; K 4.99; G 4.24; V 3.99; Q 4.53
K18: F 5.1; D 4.78; A 4.89; E 5.03; C 5.07; G 4.91
A10: C 5.01; E 4.55; G 4.25; Q 4.95; D 3.92; W 4.73; N 4.6; T 4.21; I 4.55; S 4.66; Y 4.9; K 4.02; V 4.57; H 5.1; M 5.21; F 4.47; R 4.95; P 5.19; L 4.38
E13: Q 4.88; I 4.73; T 4.83; C 5.01; N 4.59; Y 4.4; G 5.01; V 4.35; P 4.36; L 4.46; W 4.51; M 3.72; S 4.26; K 4.37; D 4.61; H 4.13; A 4.51; R 4.4; F 4.04
E15: M 4.72; Q 4.52; A 4.78; N 5.4; C 4.68; H 4.55; D 4.55; I 4.63; R 3.99; Y 4.21; P 4.44; S 4.12; L 4.16; T 4.22; K 3.6; G 4.43; F 4.36; W 3.87; V 4.64
R3: F 4.34; E 5.08; M 4.41; G 5.02; S 4.91; A 5.01; W 4.4; K 5.03; N 4.69; H 4.3; V 4.35; D 4.56; Q 4.99; L 4.3; T 4.84; C 4.74; I 4.36; Y 3.84; P 5.54
R12: H 4.74; F 4.17; P 4.6; E 4.29; K 4.55; N 4.11; A 4.71; Y 4.51; L 3.76; W 4.34; V 5.34; C 4.31; T 4.98; I 4.72; M 4.87; D 4.73; G 4.45
R7: H 4.73; L 4.76; A 4.18; N 4.83; K 5.11; C 4.83; E 4.93; Q 4.19; G 4.71; I 4.41; V 4.6; Y 4.64; W 4.63; F 4.28; M 5.22; T 4.76; S 4.66; D 4.88
A2: F 3.4; W 3.61; L 3.84; H 4.76; N 4.9; P 4.84; S 4.83; K 4.42; Q 5.01; D 4.41; Y 4.32; M 4.19; T 4.28; C 4.49; V 3.51; R 5.33; E 4.71; I 4.62; G 4.78
R5: N 5.32; I 3.79; W 4.12; S 4.42; D 4.52; M 4.36; T 4.15; K 4.54; E 5.13; Q 4.33; L 3.81; A 4.69; C 4.21; Y 4.45; P 5.1; V 4.54; H 4.18; G 4.36; F 4.76
